# Laboratory results: patent publication US20150368661A1
# Molecular target: recombinant hemagglutinin (HA) (A/New Caledonia/20/99; Protein Sciences) (influenza A virus A/New Caledonia/20/99 (H1N1))
substance,measurement,value
plant-produced anti-influenza bnMAb CR6261 IgG1 (expressed in N. benthamiana) (antibody),Kd,0.055 nM
